The target of the test is T1, Human macrophage migration inhibitory factor (MIF) (human), P14174.
T1 chain: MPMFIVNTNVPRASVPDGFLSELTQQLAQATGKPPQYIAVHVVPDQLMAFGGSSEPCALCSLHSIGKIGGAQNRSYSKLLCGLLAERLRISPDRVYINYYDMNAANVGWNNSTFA
The test is described as follows: crystal structure; MIF (~18 mg/mL) co-crystallised with the small molecule T-614 at 1:3 protein-inhibitor molar ratio; hanging drop vapor diffusion; 20 mM Tris HCl pH 7.5, 2 M (NH4)2SO4, 3% 2-propanol; 20 C. Conditions: remark: other sources report otherwise.

A word on the stoichiometry N: it is the number of molecules, sites or subunits per partner or assembly.

B1: Human macrophage migration inhibitory factor (MIF), P14174 1-115 (natural protein)
chain: T1 chain
For the molecule B1, the stoichiometry N is 3.

Values taken from paper PMC10976746, “Iguratimod, an allosteric inhibitor of macrophage migration inhibitory factor (MIF), prevents mortality and oxidative stress in a murine model of acetaminophen overdose” (Molecular Medicine, 2024).
